This note sets out measurements from the RNAGym collection of RNA variant scans (doi:10.1073/pnas.2313332121).

The labels stand for the following.
B1: TPR 5TU (parent)
chain: GGAUCUUCUCGAUCUAACAAAAAAGACAAAUCUGCCACAAAGCUUGAGAGCAUCUUCGGAUGCAGAGGCGGCAGCCUUCGGUGGCGCGAUAGCGCCAACGUUCUCAACUAUGACACGCAAAACGCGUGCUCCGUUGAAUGGAGUUUAUCAUG

Variants at the floor of the assay were thinned out.

The variants in this data set derive from B1. The experiment in a line: polymerase ribozyme fitness, log enrichment relative to wild type (log ratio); higher = more active; in vitro selection for triplet polymerase activity. In a few lines: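 Both subunits of a heterodimeric triplet polymerase ribozyme were given their own mutant library, built by PCR and transcribed. Each library was annealed with a biotinylated primer, the partner subunit and triplets, incubated frozen at −7 °C, and its extended constructs gel-excised, captured on streptavidin beads and amplified by RT-PCR, all in one round done in triplicate. Fitness is the logarithm of genotype enrichment relative to wild-type enrichment, with replicates averaged by inverse-variance weighting. That logarithm is base 2, and Illumina-sequenced genotypes needed ≥10 input reads and ≥1 read per output.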
With GGAUCUUCUCGAUCUAACAAAAAAGACAAAUCUGCCACAAAGCUUGAGAGCAUCGUCGGAUGCAGAGGCGGCAGCCUUCGGUGCCGCGAUAGCGCCAACGUUCUCAGCUAUGACACGCAAAACGCGUGCUCCGUUGAAUGGCGUUUAUCAUG [U55G G84C A107G A142C], the “polymerase ribozyme fitness (log ratio)” value is at most -4.2.

As to GGAUCUUCUCGAUCUAACAAAAAAGACAAAUCUGCCACAAAGCUUGAGAGCAUCGUCGGAUGCAGAGGCGGCAGCCUUCGGUGGCGCGAUAGCACCAUCGUUCUCAACUAUGACACGCAAAACGCGUGCUCCGUUGAAUGGAGUUUAUCAUG [U55G G94A A98U], the “polymerase ribozyme fitness (log ratio)” value was -0.256.

As for GGAUCUUCUCGAUCUAACAAAAAAGACAAAUCUGCCACAAAGCUUGAGAGCAUCGUCGGAUGCAGAGGCGGCAGCCUUCGGUGGCGCGAUAGCACCAACGUUCUCAACUAUGACGCGCAAAUCGCGUGCUCCGCUGAACGGAAUUUACCAUG [U55G G94A A115G A122U U134C U139C G143A U148C], the “polymerase ribozyme fitness (log ratio)” value is at most -4.2.

As to GGAUCUUCUCGAUCUAACAAAAAAGACAAAUCUGCCACAAAGCUUGAGAGCAUCGUCGUAUGCAGAGGCGGCAGCCUUCGGUGGCGCGAUAGCGCCAACGUUCUCAACUAUGACACGCAAAACGCGCGCUCCGUUGAAUGGAGUUUAUCAUG [U55G G59U U127C], the “polymerase ribozyme fitness (log ratio)” value was -2.75.

Take GGAUCUUCUCGAUCUAACAAAAAAGACAAAUCUGCCACAAAGCUUGAGAGCAUCGUCGGAUGCAGAGGCGGCAGCCUUCGGUGGCGCGAUAGUGCCAACGUUCUCAACUAUGACAUGCAAAACGCGUGCUCCGUUGAAUGAAGGUUAUCAUG [U55G C93U C116U G141A U144G]: the “polymerase ribozyme fitness (log ratio)” value is -2.63.

On to GGAUCUUCUCGAUCUAACAAAAAAGACAAAUCUGCCACAAAGCUUGAGAGCAUCGUCGGAUGCAGAGGCGGCAGCAUUCGGUGGCGCGAUAACGCCAACGUUCUCAAUUAUGACACGCAAAACGCGUGCUCCGUUGAAUGGAGUUUAUCAUG [U55G C76A G92A C108U], for which the “polymerase ribozyme fitness (log ratio)” value was at most -4.2.

Take GGAUCUUCUCGAUCUAACAAAAAAGACAAAUCUGCCACAAAGCUUGAGAGCAUCGUCGGAUGCAGAGGCGGCAACCUUCGGUGGUGCGAUAGCGCCAACGUUCUCAACUGUGACACGCAAAACGCGUGCUCCGUUGAAUGGAGUUUAUCAUG [U55G G74A C85U A110G]: the “polymerase ribozyme fitness (log ratio)” value was at most -4.2.

Take GGAUCUUCUCGAUCUAACAAAAAAGACAAAUCUGCCACAAAGCUUGAGAGCAUCGUCGGAUGCAGAGGCGGCAGCCUUCGGUGGAGCGAUAGCGCCAAUGUUCUCAACUAUGACACGCAAAACGCGUGCUCCGUUAAAUGGAGUUUAUCAUG [U55G C85A C99U G136A]: the “polymerase ribozyme fitness (log ratio)” value is -3.43.

As to GGAUCUUCUCGAUCUAACAAAAAAGACAAAUCUGCCACAAAGCUUGAGAGCAUCGUCGUAUGCAGACGCGGCAGCCAUCGGUGGCGCGAUAGCGCGAACGUUCUCAACUAUGACACGCCAAACGCGUGCUCCGUUGAAAGGAGUUUAGCAUG [U55G G59U G67C U77A C96G A119C U139A U148G], the “polymerase ribozyme fitness (log ratio)” value was at most -4.2.

For GGAUCUUCUCGAUCUAACAAAAAAGACAAAUCUGCCACAAAGCUUGAGAGCAUCGUCGGAUGCAGAGGCGGCAGCCUUCGGUGGCGCGAUAGCGCCAACGUUAUCAACUAUGACACGCAAAACGCGUGCUCCGUUGAAUGGAGUUUAUCAUG [U55G C103A], the “polymerase ribozyme fitness (log ratio)” value is -2.99.

For GGAUCUUCUCGAUCUAACAAAAAAGACAAAUCUGCCACAAAGCUUGAGAGCAUCGUCGGAUGCAGAGGCGGCAGCCUUCGGUGGCGCGAUAGCGCCAACGUUCUCAACUAUGACACGCAAAACGCGUGCUACGUUGAAUGGAGUUUAUCAUG [U55G C131A], the “polymerase ribozyme fitness (log ratio)” value is -2.39.

As to GGAUCUUCUCGAUCUAACAAAAAAGACAAAUCUGCCACAAAGCUUGAGAGCAUCGUCGGAUGCAGAGGAGGCAGCCUUCGGUGGCGUGAUAGCGCCAACGUUCUAAACUAUGACACGCAAAACGCGUGCUCCGUUGAUUGGAGUUUAUCAUG [U55G C69A C87U C105A A138U], the “polymerase ribozyme fitness (log ratio)” value was at most -4.2.

For the variant GGAUCUUCUCGAUCUAACAAAAAAGACAAAUCUGCCACAAAGCUUGAGAGCAUCGUCUGAUCCAGAGGCGGCAGCCUUCGGUGGUGCGAUAGCGCCAACGUUCUCAACUAUGACACGCAAAACGCGUGCUCCGUUGGAUGGAGUUUAUCAUG [U55G G58U G62C C85U A137G], the “polymerase ribozyme fitness (log ratio)” value is -3.31.

Turning to GGAUCUUCUCGAUCUAACAAAAAAGACAAAUCUGCCACAAAGCUUGAGAGCAUCGAGGGAUGCAGAGGCGGCAGCAUUCGGUGGCGCGAUAGAGCCAACGUUCUCAACUAUGACACGCAAAACGCGUGCUCCGUUGAAUGGAGUUUAUCAUG [U55G U56A C57G C76A C93A], the “polymerase ribozyme fitness (log ratio)” value is -3.7.

Take GGAUCUUCUCGAUCUAACAAAAAAGACAAAUCUGCCACAAAGCUUGAGAGCAUCGUCGGAUGCAGAGGCGGCAGCCUUCGGUGGCUCGAUAGCGUCAACGUUCUCAACUAUGACACGCAAAACGCGUGCUCCGUUGAAUGGAGUUUAUCAUG [U55G G86U C95U]: the “polymerase ribozyme fitness (log ratio)” value was -0.739.

In the case of GGAUCUUCUCGAUCUAACAAAAAAGACAAAUCUGCCACAAAGCUUGAGAGCAUCGUAGGAUCCAGAGGCGGCAGCCUUUGGUGGCGCGAUAGCGCCAACGUUCUCAACGAUGACACGCAAAACGCGUGCUCCGUUGAAUGGAGUUUAUCAUG [U55G C57A G62C C79U U109G], the “polymerase ribozyme fitness (log ratio)” value was at most -4.2.

For GGAUCUUCUCGAUCUAACAAAAAAGACAAAUCUGCCACAAAGCUUGAGAGCAUCGUCGGAUGCAGAGGCGGCAGCCUUCGGUGGCGUGAUAGCGCCAACGUUCUCAACUAUGACACGCAAAACGCGUGGUCCGUUGAAUGGAGUUUAUCAUG [U55G C87U C129G], the “polymerase ribozyme fitness (log ratio)” value is -3.16.

GGAUCUUCUCGAUCUAACAAAAAAGACAAAUCUGCCACAAAGCUUGAGAGCAUCGUCGGAUGCAGAGGCGGCAGCCUUCGGUGGCGCGAUAGCGCUAACGUUCUCAACUAUGACACGCAAAACGCGUGCUCCGUUGAAUGGAGUUUAUCAUG [U55G C96U]: the “polymerase ribozyme fitness (log ratio)” value is -0.6.

With GGAUCUUCUCGAUCUAACAAAAAAGACAAAUCUGCCACAAAGCUUGAGAGCAUCGUCGGAUGCAGAGGUGUCAGCCUUCGGUGGCGCGAUAGCGCCAACGUUCUCAACUAUGACACGCAAAACGCGUACUCCGUUGAAUGGAGUUUAUCAUG [U55G C69U G71U G128A], the “polymerase ribozyme fitness (log ratio)” value was at most -4.2.
